# Assay: soluble on expression in E. coli; label from the status in PepcDB or PDB records
row,Sequence,soluble on expression in E. coli
1,MAPWIGGKRNLARRICAILDRSPCLTYAEPFVGMAGIFLRRSSRPRAEVINDRGRDVANLFRILQRHYPQFLDTLRFQLTTRAEFERLGATDPDTLTDLERAARFLYLQRTAFGGKVSGRNFGVSSHRPGRFNLTTLEPMLEDLHSRLAGVIVECLDWADFLARYDRPETLFYLDPPYWGSETDYGRGLFQREDFGLMAERLAKLQGRFLLSINDVPQIRAIFGRFRITEVTTTYSISGSAKGNGTARPELLVSNWDIGEEG,not soluble
2,MGSDKIHHHHHHMNPGWRVVDLIDFDGKVSYQRGQLAITSDSGELRATLPLAQIAVVLIGNKLIISGAVLVKLSEYDIAVLVCDWRRVPVAGSFSWNEHTRIAARQRAQASLSLPRQKSAWAQIIKAKILGQARTAAQLGFDATDLKNLARAVRSGDVDNREAMAAKRYWEIISAEDDFRRLPGLAATGWNGALDYAYTVLRGHGMRAICSAGLVGTLGVFHHGRGNQFALVDDLIEPFRPAIDYAVFSIVSNSQELDKETKRQLVAAVEEPFNSAGQSIPTVFTAFAQQYGRYVEGDVEKLVPPIWEGPFDAEER,not soluble
3,SMQEKYRLVVVGGGGVGKSALTIQFIQSYFVTDYDPTIEDSYTKQCVIDDRAARLDILDTAGQEEFGAMREQYMRTGEGFLLVFSVTDRGSFEEIYKFQRQILRVKDRDEFPMILIGNKADLDHQRQVTQEEGQQLARQLKVTYMEASAKIRMNVDQAFHELVRVIRKFQEQ,soluble
4,SMTYIPPGESLRDLIEQSQSSGSGSGLPLLVQRTIAKQIQMVKQIGKGRYGEVWMGKWRGEKVAVKVFFTTEEASWFRETEIYQTVLMRHENILGFIAADIKGTGSWTQLYLITDYHENGSLYDYLKSTTLDAKSMLKLAYSSVSGLCHLHTEIFSTQGKPAIAHRDLKSKNILVKKNGTCCIADLGLAVKFISDTNEVDIPPNTRVGTKRYMPPEVLDESLNRNHFQSYIMADMYSFGLILWEVARRCVSGGIVEEYQLPYHDLVPSDPSYEDMREIVCIKKLRPSFPNRWSSDECLRQMGKLMTECWAHNPASRLTALRVKKTLAKMSESQDIKL,soluble
5,MPRPGKDSYDEQKPPYSYIWLTYMAIQDSDDKMLPLTEIYKYIMDRFPFYRKNTQRWQNSLRHNLSFNDCFIKIPRRADRPGKGSYWAVHPNASGMFENGSCLRRRKRFRARGGQDDDDDDFHHPAPSKISRKNPLPLLPEPPITPPLLSSLFPNLPPSLPNFCLFPPGMDPTKSLLLNPLSLLLMPHFLKNSSNFESSTPHSETSEISGSGSSSSKTPTPEAGFNSSFSIESILSS,not soluble
6,MSLRPPQTLSRGWGDDITWVQTYEEGLFYAQKSKKPLMVIHHLEDCQYSQALKKVFAQNEEIQEMAQNKFIMLNLMHETTDKNLSPDGQYVPRIMFVDPSLTVRADIAGRYSNRLYTYEPRDLPLLIENMKKALRLIQSELEGHHHHHH,soluble
7,MNCAISGEVPEEPVVSKKSGLLYEKRLIQTHISDYGKCPVTGEPHTLDDIVPIKTGKIVKPKPLHTASIPGLLGTFQTEWDSLMLSNFALEQQLHTARQELSHALYQHDAACRVIARLKKERDESRQLLAEAERQLPAAPEVATSNAALSNGKRGIDDGEQGPNAKKMRLGISAEVITELTDCNAALSQQRKKRQIPKTLASVDALEKFTQLSSHPLHKTNKPGIFSMDILHSKDVIATGGIDTTAVLFDRPSGQILSTLTGHSKKVTSIKFVGDTDLVLTASSDKTVRIWGCSEDGNYTSRHTLKDHSAEVRAVTVHATNKYFVSASLDSTWCFYDLSSGLCLAQVTDASENDVNYTAAAFHPDGLILGTGTAQSIVKIWDVKSQANVAKFGGHNGEITSISFSENGYFLATAALDGVRLWDLRKLKNFRTFDFPDANSVEFDHSGSYLGIAASDIRVFQAASVKAEWNPIKTLPDLSGTGKATSVKFGLDSKYIAVGSMDRNLRIFGLPDDDNTEDSAQDS,soluble
8,MTKPMIQIALDQTNLTDAVAVASNVASYVDVIEVGTILAFAEGMKAVSTLRHNHPNHILVCDMKTTDGGAILSRMAFEAGADWITVSAAAHIATIAACKKVADELNGEIQIEIYGNWTMQDAKAWVDLGITQAIYHRSRDAELAGIGWTTDDLDKMRQLSALGIELSITGGIVPEDIYLFEGIKTKTFIAGRALAGAEGQQTAAALREQIDRFWP,not soluble
9,MLQGFRWSPHGFWVCQARFFNKKIRQRTHYEVLGVESTATLSEIKSAFYAQSKKVHPDNSSEESATASFLELKNAYDVLRRPADRRLYDYQLRGGGGRYPNGGQRYQYPNTAPQYDFSRDWSTYWSQNPDNSRSSREERDKSSREFMKSI,not soluble
10,MTHETDKIVEIERQKIEVENERFAIEDECCSIKKRIDVLDGVAAQISSGPASMGFSGQCSSSIPASGSQPHLTRRHTVTGQEPNPLAMSQNQMSTGFFFNHESLDNLAKFLGYYGE,not soluble
11,MSDSSNQLMPLSLSAPGVNLGAYISTVNQIPILTAEQEKELAERYYYDQDLDAAKMLVMSHLRFVVHIARSYAGYGLPQGDLIQEGNLGLMKAVKRFDPNMGVRLVSFAVHWIKAEIHEYVIRNWRIVKIATTKAQRKLFFNLRSLKKSSKKLTLEEAQSIANDLNVTPEQVLEMEGRLTAYDAAFETQGDDDDDSSTHVAPALYLEDNRYDPARLAENDDYEEQSSTALHEAMNQLDDRSRNILQRRWLDDDKSTLHELAAEYNVSAERIRQLEKNAMEKIKVAMSAG,not soluble
12,SNAMSDKFHILLLNGPNLNLLGTREPEKYGYTTLAEIVSQLEIQAQGMDVALSHLQSNAEHALIDSIHQARGNTDFILINPAAFTHTSVALRDALLGVQIPFIEIHLSNVHAREPFRHHSYLSDIAVGVICGLGADGYNFALQAAVNRLSKSN,soluble
13,GYRALSFPDPLDSQPVQAIAFYPSTGSEHLSIIHGYRVEASEDAPIAMGRFPLLLLSHGNTGTPLALHDLATSLARQGFVVVAVVHPGDNDRDHSRLGSLSNLYGRPLQISEAISTALLDPVLAPYLNARQVGVIGYSAGGETALILAGAQPDLQRLRQYCLERPTDRDACKTQGELVADRDDLHAQADPRVGALMLMAPLSLMFGRHTLGDVHVPVLMYAGDDDQLLALDRNAEALARKLPQAPDYKLLAGAGHFVFMAPCSDEQREAAPLL,not soluble

# From the DeepSol protein solubility set
